# Test results reported in IntAct's records for PubMed 22111578.
# B1: ADP-ribosylation factor 4 (Mus musculus), P61750 (parent)
# chain: MGLTISSLFSRLFGKKQMRILMVGLDAAGKTTILYKLKLGEIVTTIPTIGFNVETVEYKNICFTVWDVGGQDKIRPLWRHYFQNTQGLIFVVDSNDRERIQEGAAVLQKMLLEDELQDAVLLLFANKQDLPNAMAISEMTDKLGLQSLRNRTWYVQATCATQGTGLYEGLDWLSNELSKR
# B2: ADP-ribosylation factor 5 (Mus musculus), P84084 (parent)
# chain: MGLTVSALFSRIFGKKQMRILMVGLDAAGKTTILYKLKLGEIVTTIPTIGFNVETVEYKNICFTVWDVGGQDKIRPLWRHYFQNTQGLIFVVDSNDRERVQESADELQKMLQEDELRDAVLLVFANKQDMPNAMPVSELTDKLGLQHLRSRTWYVQATCATQGTGLYDGLDWLSHELSKR
# Variants of: B1
# Conditions: with caps2_mouse Cadps2, Q8BYR5
row,Variant,effect of a mutation on the interaction
1,T31N,increasing interaction

# Variants of: B1
# Conditions: with caps2_mouse Cadps2, Q8BYR5
# Remark: another data set of the same source
# Target sequence in this assay (Q8BYR5 whole entry): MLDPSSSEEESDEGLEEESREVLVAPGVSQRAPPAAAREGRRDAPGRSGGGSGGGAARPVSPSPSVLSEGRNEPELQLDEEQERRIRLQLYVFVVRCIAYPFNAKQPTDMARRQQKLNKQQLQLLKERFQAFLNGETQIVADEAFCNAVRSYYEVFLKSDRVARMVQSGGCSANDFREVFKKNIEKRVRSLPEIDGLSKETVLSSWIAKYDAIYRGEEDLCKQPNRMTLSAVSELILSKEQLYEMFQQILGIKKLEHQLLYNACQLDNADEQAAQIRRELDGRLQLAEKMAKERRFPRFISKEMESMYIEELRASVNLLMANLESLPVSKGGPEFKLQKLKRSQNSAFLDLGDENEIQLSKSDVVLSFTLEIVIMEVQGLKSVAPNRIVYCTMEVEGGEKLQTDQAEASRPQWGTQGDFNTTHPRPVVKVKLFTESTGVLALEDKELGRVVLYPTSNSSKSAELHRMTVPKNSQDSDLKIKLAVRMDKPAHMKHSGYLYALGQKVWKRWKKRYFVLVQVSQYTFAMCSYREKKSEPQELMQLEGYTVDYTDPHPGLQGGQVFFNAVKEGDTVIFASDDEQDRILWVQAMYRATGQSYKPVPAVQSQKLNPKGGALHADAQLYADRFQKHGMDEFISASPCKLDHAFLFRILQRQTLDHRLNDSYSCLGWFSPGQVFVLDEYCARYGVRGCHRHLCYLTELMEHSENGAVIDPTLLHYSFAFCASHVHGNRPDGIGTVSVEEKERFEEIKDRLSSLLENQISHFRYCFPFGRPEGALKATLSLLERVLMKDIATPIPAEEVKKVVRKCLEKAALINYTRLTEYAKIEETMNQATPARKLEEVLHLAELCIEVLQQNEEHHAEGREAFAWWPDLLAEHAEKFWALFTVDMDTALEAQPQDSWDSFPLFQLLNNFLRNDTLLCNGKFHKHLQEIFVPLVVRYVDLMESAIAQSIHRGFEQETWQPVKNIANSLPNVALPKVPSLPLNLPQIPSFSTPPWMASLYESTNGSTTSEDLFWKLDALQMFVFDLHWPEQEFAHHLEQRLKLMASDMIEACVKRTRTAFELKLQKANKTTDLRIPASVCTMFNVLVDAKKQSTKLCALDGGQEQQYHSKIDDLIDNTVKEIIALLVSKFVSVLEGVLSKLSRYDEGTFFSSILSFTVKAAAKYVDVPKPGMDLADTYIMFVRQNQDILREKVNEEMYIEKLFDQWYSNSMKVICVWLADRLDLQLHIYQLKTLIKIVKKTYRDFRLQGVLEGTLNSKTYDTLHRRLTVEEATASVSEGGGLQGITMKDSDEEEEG
row,Variant,effect of a mutation on the interaction
1,Q71L,disrupting interaction

# Variants of: B2
# Conditions: with caps2_mouse Cadps2, Q8BYR5
# Target sequence in this assay (Q8BYR5 whole entry): as above
row,Variant,effect of a mutation on the interaction
1,T31N,increasing interaction

# Variants of: B2
# Conditions: with caps2_mouse Cadps2, Q8BYR5
# Remark: another data set of the same source
# Target sequence in this assay (Q8BYR5 whole entry): as above
row,Variant,effect of a mutation on the interaction
1,S6A,disrupting interaction

# Variants of: B2
# Conditions: with caps2_mouse Cadps2, Q8BYR5
# Remark: another data set of the same source
# Target sequence in this assay (Q8BYR5 whole entry): as above
row,Variant,effect of a mutation on the interaction
1,Q71L,disrupting interaction
